Laboratory results: patent US20190218277A1 (Chugai, published 2019)
Numbering of substitutions follows the chain as printed. Read-outs that look alike come from different tables or passages of the source.

T1: mouse FcγRIV (mouse, UniProt A0A0B4J1G0 21-203)
T1 construct: also called mFcγRIV; mouse FcγR4
T1 sequence: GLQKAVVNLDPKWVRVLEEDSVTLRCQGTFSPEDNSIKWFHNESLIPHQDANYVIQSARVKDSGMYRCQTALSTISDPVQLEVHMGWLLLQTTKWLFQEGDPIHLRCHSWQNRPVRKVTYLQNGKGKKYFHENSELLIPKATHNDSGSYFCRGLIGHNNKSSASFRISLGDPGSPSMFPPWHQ

T2: mouse FcγRI (mouse, UniProt P26151 25-297)
T2 construct: also called mFcγRI; mouse FcγR1
T2 sequence: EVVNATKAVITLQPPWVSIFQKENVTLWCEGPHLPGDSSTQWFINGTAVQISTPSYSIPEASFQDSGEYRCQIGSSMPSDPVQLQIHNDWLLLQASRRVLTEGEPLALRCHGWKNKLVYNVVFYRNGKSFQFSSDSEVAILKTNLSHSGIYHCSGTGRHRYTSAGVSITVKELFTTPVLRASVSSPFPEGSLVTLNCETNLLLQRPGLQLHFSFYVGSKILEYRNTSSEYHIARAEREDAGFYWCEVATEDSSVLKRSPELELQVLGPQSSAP

T3: human FcγRIIb (human, UniProt P31994 43-217)
T3 construct: also called human FcγR2b
T3 sequence: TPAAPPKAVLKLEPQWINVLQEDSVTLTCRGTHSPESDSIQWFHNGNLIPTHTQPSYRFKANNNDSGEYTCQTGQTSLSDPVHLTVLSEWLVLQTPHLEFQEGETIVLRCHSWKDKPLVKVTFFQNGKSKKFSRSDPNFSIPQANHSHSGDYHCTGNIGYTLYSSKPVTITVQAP

T4: mouse FcγRIII (mouse, UniProt P08508 31-215)
T4 construct: also called mFcγRIII; mouse FcγR3
T4 chain: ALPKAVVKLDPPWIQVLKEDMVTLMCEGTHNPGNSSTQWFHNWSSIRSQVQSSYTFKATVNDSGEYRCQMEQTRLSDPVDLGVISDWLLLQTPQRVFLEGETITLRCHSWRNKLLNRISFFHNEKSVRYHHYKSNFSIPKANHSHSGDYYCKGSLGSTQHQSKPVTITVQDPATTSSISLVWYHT

T5: human FcγRIIIb (NA1) (human, UniProt O75015 17-200)
T5 construct: also called human FcγR3b allelic variant NA1
T5 chain: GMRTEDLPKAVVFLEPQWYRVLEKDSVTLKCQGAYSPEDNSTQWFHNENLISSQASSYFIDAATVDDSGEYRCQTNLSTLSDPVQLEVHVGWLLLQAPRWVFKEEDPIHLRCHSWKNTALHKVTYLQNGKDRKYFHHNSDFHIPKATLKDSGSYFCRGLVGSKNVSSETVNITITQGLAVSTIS

B1: DG_3CH1047-SG1106/3CL119-SK1 (antibody)
heavy: QVQLVQSGPDVEKPGASVKVSCKASGYTFTSYYMHWVRQAPGQGLEWMGVINPRGGSRRSAQKFQGRITMTRDTSTSTVYMELSSLRSEDTAVYYCARGGEALFYDSYTTPFDGGSWWFDPWGQGSLVTVSSASTKGPSVFPLAPSSKSTSGGTAALGCLVKDYFPEPVTVSWNSGALTSGVHTFPAVLQSSGLYSLSSVVTVPSSSLGTQTYICNVNHKPSNTKVDKRVEPKSCDKTHTCPPCPAPEAAGGPSVFLFPPKPKDTLMISRTPEVTCVVVDVSHEDPEVKFNWYVDGVEVHNAKTKPREEQYNSTYRVVSVLTVLHQDWLNGKEYKCKVSNAALPAPISKTISKAKGQPREPQVYTLPPSREEMTKNQVSLTCLVKGFYPSDIAVEWESNGQPENNYKTTPPVLDSDGSFFLYSKLTVDKSRWQQGNVFSCSVLHEALHAHYTRKELSLSP
light: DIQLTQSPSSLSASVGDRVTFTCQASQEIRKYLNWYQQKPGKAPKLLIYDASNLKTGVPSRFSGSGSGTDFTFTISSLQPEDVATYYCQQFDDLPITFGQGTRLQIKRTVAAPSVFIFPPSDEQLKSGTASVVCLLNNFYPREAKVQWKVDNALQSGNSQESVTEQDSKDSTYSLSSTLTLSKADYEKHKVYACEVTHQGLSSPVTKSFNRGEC
B2: DG_3CH953-SG1106/3CL012-SK1 (antibody)
heavy: B1 heavy with Y32N, M34I, E101R
light: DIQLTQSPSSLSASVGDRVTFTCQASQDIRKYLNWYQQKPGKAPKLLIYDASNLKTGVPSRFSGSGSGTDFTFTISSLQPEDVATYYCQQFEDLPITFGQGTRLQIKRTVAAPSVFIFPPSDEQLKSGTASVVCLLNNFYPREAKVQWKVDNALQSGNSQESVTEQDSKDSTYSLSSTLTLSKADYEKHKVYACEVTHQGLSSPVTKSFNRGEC
B3: DG_3CH1000-SG1106/3CL-SK1 (antibody)
heavy: B1 heavy with E101R
light: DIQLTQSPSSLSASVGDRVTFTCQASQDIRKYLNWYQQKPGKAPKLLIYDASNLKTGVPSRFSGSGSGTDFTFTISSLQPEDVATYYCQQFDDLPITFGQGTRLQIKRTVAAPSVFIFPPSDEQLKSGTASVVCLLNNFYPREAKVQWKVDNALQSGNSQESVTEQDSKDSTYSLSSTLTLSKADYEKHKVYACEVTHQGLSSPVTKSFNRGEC
B4: EFT (antibody, human IgG1, kappa)
heavy chain: EVQLVESGGGSVKPGGSLKLSCAASGFTFSDHYMYWVRQTPEKRLEWVAIISGGGSYTSYPDSMKGRFTISRDNAKNILHLQMSSLKSEDTAMYYCTRESNGKPGFAYWGQGTLVTVSAASTKGPSVFPLAPSSKSTSGGTAALGCLVKDYFPEPVTVSWNSGALTSGVHTFPAVLQSSGLYSLSSVVTVPSSSLGTQTYICNVNHKPSNTKVDKRVEPKSCDKTHTCPPCPAPELLGGPSVFLFPPKPKDTLMISRTPEVTCVVVDVEFEDPEVKFNWYVDGVEVHNAKTKPREEQYNSTYRVVSVLTVLHQDWLNGKEYKCKVTNKALPAPIEKTISKAKGQPREPQVYTLPPSREEMTKNQVSLTCLVKGFYPSDIAVEWESNGQPENNYKTTPPVLDSDGSFFLYSKLTVDKSRWQQGNVFSCSVMHEALHNHYTQKSLSLSP
light chain: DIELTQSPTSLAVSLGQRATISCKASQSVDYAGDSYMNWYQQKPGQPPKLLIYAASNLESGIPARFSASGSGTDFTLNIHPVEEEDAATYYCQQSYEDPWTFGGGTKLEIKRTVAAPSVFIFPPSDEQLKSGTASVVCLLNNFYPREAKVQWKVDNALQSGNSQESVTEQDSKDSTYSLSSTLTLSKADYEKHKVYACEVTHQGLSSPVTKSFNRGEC
notes: also called Anti-CD154 antibody (SLAPH0336a/SLAPL0336a) with Fc variant EFT (SG1087); SG1087
B5: DG_3CH-SG182/3CL-SK1 (antibody, human IgG1, kappa, V domains shown)
VH: QVQLVQSGPDVEKPGASVKVSCKASGYTFTSNYIHWVRQAPGQGLEWMGVINPRGGSTASAQKFQGRITMTRDTSTSTVYMELSSLRSDDTAVYYCARGGRALFYDSYTTPRDGGSWWFDPWGQGSLVTVSS
VL: DIQLTQSPSSLSASVGDRVTFTCQASQDIRKYLNWYQQKPGKAPKLLIYDASNLKTGVPSRFSGSGSGTDFTFTISSLQPEDVATYYCQQFDDLPITFGQGTRLQIKR
B6: DG_3CH1046-SG182/3CL668-SK1 (antibody, V domains shown)
VH: B5 VH with P9A, D10E, E12K, N32Y, I34M, T58R, A59R, I68V, D89E, R112F
VL: B5 VL with F21I, F73L, D92E
B7: DG_3CH1049-SG182/3CL668-SK1 (antibody, V domains shown)
VH: QVQLVQSGAEVKKPGASVKVSCKASGYTFTSYYMHWVRQAPGQGLEWMGVINPRGGSRRSAQKFQGRVTMTRDTSTSTVYMELSSLRSEDTAVYYCARGGEALFYDSYTTPFDGGSWWFDPWGQGSLVTVSS
VL: B5 VL with F21I, F73L, D92E
B8: DG_3CH1049-SG182/3CL633-SK1 (antibody, V domains shown)
VH: B7 VH
VL: B5 VL with F21I, F73L
B9: DG_3CH1046-SG182/3CL666-SK1 (antibody, V domains shown)
VH: B7 VH with E101R
VL: B5 VL with F21I, D28E, F73L
B10: DG_3CH1049-SG182/3CL666-SK1 (antibody, V domains shown)
VH: B7 VH
VL: B5 VL with F21I, D28E, F73L

How the values were obtained:
[1] = molecular target: T6, Recombinant soluble E protein (0.8E-His) from DENV-4 (DENV-4, UniProt P09866 280-674); assay: SPR, Biacore T200
T6 construct: also called DENV-4 E protein; DV4

[2] = molecular target: T7, Recombinant soluble E protein (0.8E-His) from DENV-2 (DENV-2, UniProt P14340 281-675); assay: SPR, Biacore T200
T7 construct: also called DENV-2 E protein; DV2

[3] = molecular target: T8, Recombinant soluble E protein (0.8E-His) from DENV-3 (DENV-3, UniProt P27915 281-673)
T8 construct: also called DENV-3 E protein; DV3

[4] = molecular target: T9, Recombinant soluble E protein (0.8E-His) from DENV-1 (DENV-1, UniProt P27909 281-675)
T9 construct: also called DENV-1 E protein; DV1

mouse FcγRIV = molecular target: T1, mouse FcγRIV; assay: SPR (Biacore T200, pH 7.4, 25 °C): His-tagged FcγR captured by anti-His antibody; antibody injected at 100 nM alone (Ab alone) or as 1:1 complex with trimeric CD154 (CD154 IC); binding level / capture level [D]
mouse FcγRI = molecular target: T2, mouse FcγRI; assay: SPR (Biacore T200, pH 7.4, 25 °C): His-tagged FcγR captured by anti-His antibody; antibody injected at 100 nM alone (Ab alone) or as 1:1 complex with trimeric CD154 (CD154 IC); binding level / capture level [A]
human FcγRIIb = molecular target: T3, human FcγRIIb; assay: SPR (Biacore T200, pH 7.4, 25 °C): His-tagged FcγR captured by anti-His antibody; antibody injected at 100 nM alone (Ab alone) or as 1:1 complex with trimeric CD154 (CD154 IC); binding level / capture level [D]
mouse FcγRIII = molecular target: T4, mouse FcγRIII; assay: SPR (Biacore T200, pH 7.4, 25 °C): His-tagged FcγR captured by anti-His antibody; antibody injected at 100 nM alone (Ab alone) or as 1:1 complex with trimeric CD154 (CD154 IC); binding level / capture level [C]
human FcγRIIIb (NA1) = molecular target: T5, human FcγRIIIb (NA1); assay: SPR (Biacore T200, pH 7.4, 25 °C): His-tagged FcγR captured by anti-His antibody; antibody injected at 100 nM alone (Ab alone) or as 1:1 complex with trimeric CD154 (CD154 IC); binding level / capture level [G]
human FcγRIIIa (158V) = molecular target: T10, human FcγRIIIa (158V) (human, UniProt P08637 17-208); assay: SPR (Biacore T200, pH 7.4, 25 °C): His-tagged FcγR captured by anti-His antibody; antibody injected at 100 nM alone (Ab alone) or as 1:1 complex with trimeric CD154 (CD154 IC); binding level / capture level [F]
T10 construct: also called human FcγR3a allelic variant 158V

human FcγRIa = molecular target: T11, human FcγRIa (human, UniProt P12314 16-292); assay: SPR (Biacore T200, pH 7.4, 25 °C): His-tagged FcγR captured by anti-His antibody; antibody injected at 100 nM alone (Ab alone) or as 1:1 complex with trimeric CD154 (CD154 IC); binding level / capture level [A]
T11 construct: also called human FcγR1a

[5] = molecular target: T9, Recombinant soluble E protein …; remark: listed apart in the source
[6] = molecular target: T6, Recombinant soluble E protein …
[7] = molecular target: T8, Recombinant soluble E protein …; remark: listed apart in the source

T11 sequence (P12314 16-292 limits assumed): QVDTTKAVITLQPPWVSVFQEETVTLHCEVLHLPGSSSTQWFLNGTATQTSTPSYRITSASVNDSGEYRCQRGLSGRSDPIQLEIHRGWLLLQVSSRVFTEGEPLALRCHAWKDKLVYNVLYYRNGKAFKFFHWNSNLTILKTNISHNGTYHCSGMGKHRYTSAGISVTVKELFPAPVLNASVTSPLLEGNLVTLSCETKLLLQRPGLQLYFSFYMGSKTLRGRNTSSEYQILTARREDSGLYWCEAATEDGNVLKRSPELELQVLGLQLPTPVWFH

Binder | binding result [1] | binding result [2] | Kd [3] [nM] | Kd [4] [nM] | further results
B1 | binds | binds | 0.00436 | 2.29 | 
B2 | binds | binds | 0.0106 | 1.89 | 
B3 | binds | binds | 0.000299 | 1.84 | 
B4 |  |  |  |  | binding result (mouse FcγRIV): binds; binding result (mouse FcγRI): binds; binding result (human FcγRIIb): binds; binding result (mouse FcγRIII): binds; binding result (human FcγRIIIb (NA1)): no binding (tested: 100 nM); binding result (human FcγRIIIa (158V)): binds; binding result (human FcγRIa): binds
B5 |  |  |  | 22.5 | Kd [5]: 32.1 nM; Kd [6]: 16.9 nM; Kd [7]: 6.07 nM
B6 | binds | binds | 0.000559 | 1.56 | 
B7 | binds | binds | 0.00155 | 1.7 | 
B8 | binds | binds | 0.0041 | 1.73 | 
B9 | binds | binds | 0.00047 | 1.52 | 
B10 | binds | binds | 0.00295 | 1.72 | 
